Assay results as given in patent US20180177842A1 (CANIMGUIDE THERAPEUTICS, published 2018).

T1: P3028 (VFDEFKPLVEEPQNLIK, SEQ ID NO: 185), His-tagged (human)
T1 construct: Synthetic fragment of human serum albumin (positions 397-413); used in solution as His-tagged peptide PGE73; also called PGE73; not shown: His-tag
T1 peptide: VFDEFKPLVEEPQNLIK


Target: T1, P3028 (VFDEFKPLVEEPQNLIK, SEQ ID NO: …)
Assay: PEPSCAN ELISA; peptide on chip, His-P3028 added;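 note: peroxidase color development with ABTS and H2O2 substrate, OD405 imaged by CCD camera with image processing and taken as raw values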
Method: After washing, the peroxidase substrate 2,2′-azine-di-3-ethylbenzthiazoline sulfonate (ABTS) and 2 μL of 3% H2O2 were added. The binding capacity of the mAb was measured as a color development at 405 nm (optical density, OD405). The color development was quantified with a charge-coupled device (CCD)—camera and an image processing system.
The OD405-values obtained by a CCD-camera was considered as raw data values (“rampo values,” “rampo units,” or “rampo scores”). […] First the CCD-camera made a picture of the card before peroxidase coloring and then again a picture after the peroxidase coloring. […] These values were copied into an excel file and labeled as a raw data file. […] Sometimes a well can contain an air-bubble resulting in a false-positive value. If manual inspection of the cards detect an air-bubble the value are set to 0 for well.

Row | Binder | RAMPO Score [rampo units]
1 | KKLDTFFVKLSRFTER [KKLDTFFVKLSRFTER (SEQ ID NO: 356)] | 483
2 | KKLDTFFVKLSSFTER [KKLDTFFVKLSSFTER (SEQ ID NO: 357)] | 478
3 | KKLDTFFVKLSTFTER [KKLDTFFVKLSTFTER (SEQ ID NO: 358)] | 437
4 | KKLDTFFVKLSVFTER [KKLDTFFVKLSVFTER (SEQ ID NO: 359)] | 545
5 | KKLDTFFVKLSWFTER [KKLDTFFVKLSWFTER (SEQ ID NO: 360)] | 409
6 | KKLDTFFVKLSYFTER [KKLDTFFVKLSYFTER (SEQ ID NO: 475)] | 320
7 | KKLDTFFVKLTLFTER [KKLDTFFVKLTLFTER (SEQ ID NO: 349)] | 520
8 | KKLDTFFVKLVLFTER [KKLDTFFVKLVLFTER (SEQ ID NO: 419)] | 392
9 | KKLDTFFVKLWLFTER [KKLDTFFVKLWLFTER (SEQ ID NO: 472)] | 324
10 | KKLDTFFVKLYLFTER [KKLDTFFVKLYLFTER (SEQ ID NO: 415)] | 402
11 | KKLDTFFVKMSLFTER [KKLDTFFVKMSLFTER (SEQ ID NO: 336)] | 460
12 | KKLDTFFVKNSLFTER [KKLDTFFVKNSLFTER (SEQ ID NO: 337)] | 365
13 | KKLDTFFVKPSLFTER [KKLDTFFVKPSLFTER (SEQ ID NO: 338)] | 436
14 | KKLDTFFVKQSLFTER [KKLDTFFVKQSLFTER (SEQ ID NO: 339)] | 470
15 | KKLDTFFVKRSLFTER [KKLDTFFVKRSLFTER (SEQ ID NO: 340)] | 439
16 | KKLDTFFVKSSLFTER [KKLDTFFVKSSLFTER (SEQ ID NO: 341)] | 351
17 | KKLDTFFVKTSLFTER [KKLDTFFVKTSLFTER (SEQ ID NO: 342)] | 399
18 | KKLDTFFVKVSLFTER [KKLDTFFVKVSLFTER (SEQ ID NO: 343)] | 658
19 | KKLDTFFVKWSLFTER [KKLDTFFVKWSLFTER (SEQ ID NO: 482)] | 316
20 | KKLDTFFVKYSLFTER [KKLDTFFVKYSLFTER (SEQ ID NO: 344)] | 382
21 | KKLDTFFVMLSLFTER [KKLDTFFVMLSLFTER (SEQ ID NO: 509)] | 283
22 | KKLDTFFVNLSLFTER (also called 31136) [KKLDTFFVNLSLFTER (SEQ ID NO: 518)] | 256
23 | KKLDTFFVQLSLFTER [KKLDTFFVQLSLFTER (SEQ ID NO: 469)] | 330
24 | KKLDTFFVRLSLFTER [KKLDTFFVRLSLFTER (SEQ ID NO: 331)] | 374

Row | Binder | RAMPO Score [rampo units]
25 | KKLDTFFVSLSLFTER [KKLDTFFVSLSLFTER (SEQ ID NO: 511)] | 274
26 | KKLDTFFVTLSLFTER [KKLDTFFVTLSLFTER (SEQ ID NO: 445)] | 347
27 | KKLDTFFVVLSLFTER [KKLDTFFVVLSLFTER (SEQ ID NO: 523)] | 248
28 | KKLDTFFVWLSLFTER [KKLDTFFVWLSLFTER (SEQ ID NO: 526)] | 245
29 | KKLDTFGVKLSLFTER [KKLDTFGVKLSLFTER (SEQ ID NO: 96)] | 347
30 | KKLDTFHVKLSLFTER [KKLDTFHVKLSLFTER (SEQ ID NO: 433)] | 364
31 | KKLDTFIVKLSLFTER [KKLDTFIVKLSLFTER (SEQ ID NO: 397)] | 446
32 | KKLDTFLVKLSLFTER [KKLDTFLVKLSLFTER (SEQ ID NO: 320)] | 517
33 | KKLDTFMVKLSLFTER [KKLDTFMVKLSLFTER (SEQ ID NO: 321)] | 712
34 | KKLDTFNVKLSLFTER [KKLDTFNVKLSLFTER (SEQ ID NO: 443)] | 348
35 | KKLDTFPVKLSLFTER [KKLDTFPVKLSLFTER (SEQ ID NO: 437)] | 356
36 | KKLDTFQVKLSLFTER [KKLDTFQVKLSLFTER (SEQ ID NO: 322)] | 511
37 | KKLDTFRVKLSLFTER [KKLDTFRVKLSLFTER (SEQ ID NO: 432)] | 369
38 | KKLDTFSVKLSLFTER [KKLDTFSVKLSLFTER (SEQ ID NO: 323)] | 700
39 | KKLDTFTVKLSLFTER [KKLDTFTVKLSLFTER (SEQ ID NO: 324)] | 517
40 | KKLDTFVVKLSLFTER [KKLDTFVVKLSLFTER (SEQ ID NO: 325)] | 527
41 | KKLDTFWVKLSLFTER [KKLDTFWVKLSLFTER (SEQ ID NO: 425)] | 380
42 | KKLDTFYVKLSLFTER [KKLDTFYVKLSLFTER (SEQ ID NO: 463)] | 334
43 | KKLDTGFVKLSLFTER [KKLDTGFVKLSLFTER (SEQ ID NO: 446)] | 347
44 | KKLDTHFVKLSLFTER [KKLDTHFVKLSLFTER (SEQ ID NO: 466)] | 332
45 | KKLDTIFVKLSLFTER [KKLDTIFVKLSLFTER (SEQ ID NO: 314)] | 466
46 | KKLDTKFVKLSLFTER [KKLDTKFVKLSLFTER (SEQ ID NO: 460)] | 337
47 | KKLDTLFVKLSLFTER [KKLDTLFVKLSLFTER (SEQ ID NO: 411)] | 408
48 | KKLDTMFVKLSLFTER [KKLDTMFVKLSLFTER (SEQ ID NO: 315)] | 467

Row | Binder | RAMPO Score [rampo units]
49 | KKLDTNFVKLSLFTER [KKLDTNFVKLSLFTER (SEQ ID NO: 316)] | 446
50 | KKLDTPFVKLSLFTER [KKLDTPFVKLSLFTER (SEQ ID NO: 317)] | 497
51 | KKLDTQFVKLSLFTER [KKLDTQFVKLSLFTER (SEQ ID NO: 410)] | 410
52 | KKLDTRFVKLSLFTER [KKLDTRFVKLSLFTER (SEQ ID NO: 486)] | 309
53 | KKLDTSFVKLSLFTER [KKLDTSFVKLSLFTER (SEQ ID NO: 401)] | 432
54 | KKLDTTFVKLSLFTER [KKLDTTFVKLSLFTER (SEQ ID NO: 318)] | 481
55 | KKLDTVFVKLSLFTER [KKLDTVFVKLSLFTER (SEQ ID NO: 319)] | 547
56 | KKLDTWFVKLSLFTER [KKLDTWFVKLSLFTER (SEQ ID NO: 444)] | 348
57 | KKLDTYFVKLSLFTER [KKLDTYFVKLSLFTER (SEQ ID NO: 434)] | 364
58 | KKLDVFFVKLSLFTER [KKLDVFFVKLSLFTER (SEQ ID NO: 429)] | 374
59 | KKLDWFFVKLSLFTER [KKLDWFFVKLSLFTER (SEQ ID NO: 311)] | 418
60 | KKLDYFFVKLSLFTER [KKLDYFFVKLSLFTER (SEQ ID NO: 312)] | 425
61 | KKLETFFVKLSLFTER [KKLETFFVKLSLFTER (SEQ ID NO: 299)] | 417
62 | KKLFTFFVKLSLFTER [KKLFTFFVKLSLFTER (SEQ ID NO: 426)] | 380
63 | KKLGTFFVKLSLFTER [KKLGTFFVKLSLFTER (SEQ ID NO: 515)] | 264
64 | KKLHTFFVKLSLFTER [KKLHTFFVKLSLFTER (SEQ ID NO: 479)] | 317
65 | KKLITFFVKLSLFTER [KKLITFFVKLSLFTER (SEQ ID NO: 300)] | 430
66 | KKLKTFFVKLSLFTER [KKLKTFFVKLSLFTER (SEQ ID NO: 512)] | 274
67 | KKLLTFFVKLSLFTER [KKLLTFFVKLSLFTER (SEQ ID NO: 491)] | 303
68 | KKLMTFFVKLSLFTER [KKLMTFFVKLSLFTER (SEQ ID NO: 423)] | 384
69 | KKLNTFFVKLSLFTER [KKLNTFFVKLSLFTER (SEQ ID NO: 498)] | 296
70 | KKLPTFFVKLSLFTER [KKLPTFFVKLSLFTER (SEQ ID NO: 435)] | 364
71 | KKLQTFFVKLSLFTER [KKLQTFFVKLSLFTER (SEQ ID NO: 448)] | 345
